The results in this text go back to article PMC11602996, “Discovery, characterization, and structure of a cofactor-independent histidine racemase from the oral pathogen Fusobacterium nucleatum” (The Journal of Biological Chemistry, 2024).

Substrate in data set [1]: N[C@H](Cc1c[nH]cn1)C(=O)O
The data set is described as follows: purified protein. Type of data set: biochemical, Fusobacterium nucleatum. The note with it: 20 mM NaH2PO4, 100 mM NaCl, pH 7.5, 25 °C.

Substrate in data set [2]: N[C@@H](Cc1c[nH]cn1)C(=O)O
As to the kind of experiment: purified protein. Format: biochemical, Fusobacterium nucleatum. The note with it: 20 mM NaH2PO4, 100 mM NaCl, pH 7.5, 25 °C.

B1: HisR (FN1732, predicted DapF) from F. nucleatum ATCC 25586 (Fusobacterium nucleatum subsp. nucleatum ATCC 25586) (protein)
chain: MDRKVQVLDFIKINPAGNITILIDNFDIYDKNIPKLSEEIMKETNLYAEQVGFIKDSHLQMMGGEFCGNASRAFASLLAFRDKDFSKQKNYNITCSGESKVLDVDVRNDGAKNKFLAKIKMPKFLSLEEINVDEYKLGLVRFSGINHFIFNIKENKETSFENIIDLVKKYLSNEEYSAFGIMFFDSDNLSMKPYVYVKEVGSGVYENSCASGTTALGYYLKKCKNLDRAKIVQPNGWLEYIIENDEMYIDGPVEIIAEGKIYIGK
notes: C-terminal hexahistidine tag, codon-optimized gene in pET-24b(+), expressed in E. coli BL21(DE3), Ni-NTA purified; homodimer
As a reminder, the Km is the substrate concentration at which the rate is half of its maximum. A word on the kcat: it is the number of substrate molecules converted per active site and unit of time at saturation. The term kcat/Km denotes the turnover number divided by the Michaelis constant. B1: in data set [1], the Michaelis constant (Km) is reported as 24 mM, the kcat amounted to 250 s⁻¹ and the kcat/Km is 10000 M⁻¹ s⁻¹. In data set [2], the Michaelis-Menten constant (Km) was determined as 4 mM, the kcat was determined as 74 s⁻¹ and the kcat/Km came to 20000 M⁻¹ s⁻¹.

B2: HisR from F. nucleatum ATCC 23726 (Fusobacterium nucleatum subsp. nucleatum ATCC 23726) (protein)
chain: MDGKVQVLDFIKINPAGNITILIDNFDIYDKNIPKLSEEIMKETNLYAEQVGFIKEKHLQMMGGEFCGNASRSFASLLAFRDKDFSEQKNYSITCSGESEVLDVDVRTDGAKNKFLAKIKMPKFISLEEISIDEYKLGLVRFSGISHFIFNIKENKETSFENIIDLVKKYLSNEDYSAFGIMFFDKDNLSMKPYVYVKELESGIYENSCASGTTALGYYLKKYKNLDRAKVVQPNGWLEYIIENDEMYIDGPVEIVAEGKVYI
Take B2: in data set [1], the Km is reported as 18 mM, the turnover number (kcat) was 64 s⁻¹ and the kcat/Km is 4000 M⁻¹ s⁻¹. In addition, in data set [2], the Km came out at 5 mM, the kcat was 42 s⁻¹ and the specificity constant (kcat/Km) amounted to 9000 M⁻¹ s⁻¹.
